Values of other authors in PMC13051815.

What was measured:
[1] = molecular target: Bim BH3 peptide 86-111 (Homo sapiens) (UniProt O43521); test: ITC
[2] = molecular target: Bim BH3 peptide 86-111 (Homo sapiens) (UniProt O43521); test: fluorescence polarization

Sequence of UniProt O43521 (O43521 86-111): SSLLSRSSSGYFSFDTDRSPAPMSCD

Kd [1]: 400 nM | Kd [2]: > 30000 nM
Substance: Hsp70 NBD (from UniProt P0DMV8)
